{"source": "paper PMC3813506", "about": "(2013)", "key": {"Nupr1 [1]": {"molecular_target": "T1, Nupr1 (Homo sapiens, UniProt O60356)", "T1 chain": "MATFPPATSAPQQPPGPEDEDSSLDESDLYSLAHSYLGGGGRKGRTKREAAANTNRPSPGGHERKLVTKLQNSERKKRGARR", "assay": "ITC; 40 µM MSL1 injected into 4 µM Nupr1 in the cell; 25°C, 10 mM acetate buffer pH 4.5; single-site binding model; heat of dilution of MSL1 used as reference"}, "[2]": {"system": "TRX-MSL1;Nupr1 (Homo sapiens;)", "assay": "ITC", "settings": "MSL1 titrated into preformed Nupr1 + damaged-DNA complex; dH 28 kcal/mol; chemically damaged with etoposide; ITC: 10 mM acetate pH 4.5, 25 C, 0.03 mg/ml damaged DNA; CD/fluorescence: 50 mM acetate pH 4.5, 25 C, 20 uM protein; agarose gel: 2%, 1x TAE; NMR 25 C"}, "TRX-MSL1 (Homo sapiens)": {"system": "T2, TRX-MSL1 (Homo sapiens)", "T2 sequence": "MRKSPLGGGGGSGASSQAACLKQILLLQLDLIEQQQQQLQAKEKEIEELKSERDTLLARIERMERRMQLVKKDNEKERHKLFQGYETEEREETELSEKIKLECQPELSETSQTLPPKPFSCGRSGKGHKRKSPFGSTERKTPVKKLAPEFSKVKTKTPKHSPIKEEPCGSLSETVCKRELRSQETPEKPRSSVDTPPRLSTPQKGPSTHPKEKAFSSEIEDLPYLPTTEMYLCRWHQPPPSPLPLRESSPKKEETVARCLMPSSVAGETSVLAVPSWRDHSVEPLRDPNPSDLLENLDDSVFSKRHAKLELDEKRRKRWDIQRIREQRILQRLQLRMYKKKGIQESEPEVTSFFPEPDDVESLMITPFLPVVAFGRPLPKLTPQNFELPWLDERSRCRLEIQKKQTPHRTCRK", "assay": "ITC", "settings": "apparent; dH 29 kcal/mol; DNA MW assumed (10^4 kDa); chemically damaged with etoposide; ITC: 10 mM acetate pH 4.5, 25 C, 0.03 mg/ml damaged DNA; CD/fluorescence: 50 mM acetate pH 4.5, 25 C, 20 uM protein; agarose gel: 2%, 1x TAE; NMR 25 C"}, "Nupr1 [3]": {"system": "Nupr1", "assay": "ITC", "settings": "apparent; dH -23 kcal/mol; DNA MW assumed (10^4 kDa); chemically damaged with etoposide; ITC: 10 mM acetate pH 4.5, 25 C, 0.03 mg/ml damaged DNA; CD/fluorescence: 50 mM acetate pH 4.5, 25 C, 20 uM protein; agarose gel: 2%, 1x TAE; NMR 25 C"}, "[4]": {"molecular_target": "Nupr1-Flag (pcDNA3-Nupr1-Flag) (UniProt O60356)", "assay": "proximity ligation; MiaPaCa-2 cells transfected with Nupr1-Flag and MSL1-V5, treated with cisplatin (5 µM or 10 µM) for 24 h; DuoLink kit; also combined with γ-H2AX staining"}, "Nupr1 [5]": {"molecular_target": "T1, Nupr1", "assay": "ITC"}}}
{"molecule": "TRX-tagged MSL1 (His-tagged TRX-MSL1 fusion protein, human MSL1, 413-residue-long differentially spliced isoform) (natural protein)", "values": [{"measurement": "Kd", "setting": "Nupr1 [1]", "result": 2800, "unit": "nM"}, {"measurement": "dH", "setting": "Nupr1 [1]", "result": 39, "unit": "kcal/mol"}]}
{"molecule": "etoposide-damaged DNA", "values": [{"measurement": "Kd", "setting": "[2]", "result": 800, "unit": "nM"}, {"measurement": "Kd", "setting": "TRX-MSL1 (Homo sapiens)", "result": 1200, "unit": "nM"}, {"measurement": "Kd", "setting": "Nupr1 [3]", "result": 400, "unit": "nM"}]}
{"molecule": "MSL1-V5 (pcDNA4-MSL1-V5) (from UniProt Q68DK7 1-614) (natural protein)", "values": [{"measurement": "PLA dots (PLA combined with γ-H2AX staining, cisplatin)", "setting": "[4]", "result": 53, "unit": "PLA dots"}, {"measurement": "PLA dots per nucleus (5 µM cisplatin) (dots PLA per nucleus)", "setting": "[4]", "result": 32}, {"measurement": "PLA dots per nucleus (10 µM cisplatin) (dots PLA per nucleus)", "setting": "[4]", "result": 57}]}
{"molecule": "MSL1 (protein, Nupr1 preformed complex with etoposide-damaged DNA) MTMRSAVFKAAAAPAGGNPEQRLDYERAAALGGPEDEPGAAEAHFLPRHRKLKEPGPPLASSQGGSPAPSPAGCGGKGRGLLLPAGAAPGQQEESWGGSVPLPCPPPATKQAGIGGEPAAAGAGCSPRPKYQAVLPIQTGSLVAAAKEPTPWAGDKGGAASPAATASDPAGPPPLPLPGPPPLAPTATAGTLAASEGRWKSMRKSPLGGGGGSGASSQAACLKQILLLQLDLIEQQQQQLQAKEKEIEELKSERDTLLARIERMERRMQLVKKDNEKERHKLFQGYETEEREETELSEKIKLECQPELSETSQTLPPKPFSCGRSGKGHKRKSPFGSTERKTPVKKLAPEFSKVKTKTPKHSPIKEEPCGSLSETVCKRELRSQETPEKPRSSVDTPPRLSTPQKGPSTHPKEKAFSSEIEDLPYLSTTEMYLCRWHQPPPSPLPLRESSPKKEETVARCLMPSSVAGETSVLAVPSWRDHSVEPLRDPNPSDLLENLDDSVFSKRHAKLELDEKRRKRWDIQRIREQRILQRLQLRMYKKKGIQESEPEVTSFFPEPDDVESLMITPFLPVVAFGRPLPKLTPQNFELPWLDERSRCRLEIQKKQTPHRTCRK", "values": [{"measurement": "Kd", "setting": "Nupr1 [5]", "result": 800, "unit": "nM"}]}
